The RNAGym collection of RNA variant scans (doi:10.7554/elife.80360)

B1: CPEB3 Ribozyme (parent)
chain: GGGGGCCACAGCAGAAGCGUUCACGUCGCGGCCCCUGUCAGAUUCUGGUGAAUCUGCGAAUUCUGCUGU

Variants of: B1
Assay: self-cleavage, relative activity (ratio to wild type); higher = more cleavage; co-transcriptional

| Variant | self-cleavage |
| --- | --- |
| GGGGGCCACAGCAGAAGCGUUCACAUCGCGGCCCCUGUCAGAUUCUGGUGAAUCUGCGAAUACUGCUGU [G25A U62A] | 0.187 |
| GGGGGCCACAGCAGAAGCGUUCACAUCGCGGCCCCUGUCAGAUUCUGGUGAAUCUGCGAAUCCUGCUGU [G25A U62C] | 0.19 |
| GGGGGCCACAGCAGAAGCGUUCACAUCGCGGCCCCUGCCAGAUUCUGGUGAAUCUGCGAAUUCUGCUGU [G25A U38C] | 0.123 |
| GGGGGCCACAGCAGAAGCGUUCACAUCGCGGCCCCUGGCAGAUUCUGGUGAAUCUGCGAAUUCUGCUGU [G25A U38G] | 0.153 |
| GGGGGCCACAGCAGAAGCGUUCACAUCGCGGCCCCUGACAGAUUCUGGUGAAUCUGCGAAUUCUGCUGU [G25A U38A] | 0.149 |
| GGGGGCCACAGCAGAAGCGUUCACAUCGCGGCCCCUGUCAGAUUCCGGUGAAUCUGCGAAUUCUGCUGU [G25A U46C] | 0.216 |
| GGGGGCCACAGCAGAAGCGUUCACAUCGCGGCCCCUGUCAGAUUCAGGUGAAUCUGCGAAUUCUGCUGU [G25A U46A] | 0.267 |
| GGGGGCCACAGCAGAAGCGUUCACAUCGCGGCCCCUGUCAGAUUCUGGGGAAUCUGCGAAUUCUGCUGU [G25A U49G] | 0.207 |
| GGGGGCCACAGCAGAAGCGUUCACAUCGCGGCCCCUGUCAGAUUCUGGCGAAUCUGCGAAUUCUGCUGU [G25A U49C] | 0.219 |
| GGGGGCCACAGCAGAAGCGUUCACAUCGCGGCCCCUGUCAGAUUCUGGUGAACCUGCGAAUUCUGCUGU [G25A U53C] | 0.206 |
| GGGGGCCACAGCAGAAGCGUUCACAUCGCGGCCCCUGUCAGAUUCUGGUGAAGCUGCGAAUUCUGCUGU [G25A U53G] | 0.169 |
| GGGGGCCACAGCAGAAGCGUUCACAUCGCGGCCCCUGUCAGAUUCUGGUGAAACUGCGAAUUCUGCUGU [G25A U53A] | 0.171 |
| GGGGGCCACAGCAGAAGCGUUCACAUCGCGGCCCCUGUCAGAUUCUGGUGAAUCUGCAAAUUCUGCUGU [G25A G58A] | 0.22 |
| GGGGGCCACAGCAGAAGCGUUCACAUCGCGGCCCCUGUCAGAUUCUGGUGAAUCUGCUAAUUCUGCUGU [G25A G58U] | 0.218 |
| GGGGGCCACAGCAGAAGCGUUCACAUCGCGGCCCCUGUCAGAUUCUGGUGAAUCUGCCAAUUCUGCUGU [G25A G58C] | 0.159 |
| GGGGGCCACAGCAGAAGCGUUCACAUCGCGGCCCCUGUCAGAUUCUGGUGAAUCUGCGAAUUCGGCUGU [G25A U64G] | 0.185 |
| GGGGGCCACAGCAGAAGCGUUCACAUCGCGGCCCCUGUCAGAUUCUGGUGAAUCUGCGAAUUCCGCUGU [G25A U64C] | 0.14 |
| GGGGGCCACAGCAGAAGCGUUCACAUCGCGGCCCCUGUCAGAUUCUGGUGAAUCUGCGAAUUCAGCUGU [G25A U64A] | 0.19 |
| GGGGGCCACAGCAGAAGCGUUCACAUCGCGGCCCCUGUCAGACUCUGGUGAAUCUGCGAAUUCUGCUGU [G25A U43C] | 0.288 |
| GGGGGCCACAGCAGAAGCGUUCACAUCGCGGCCCCUGUCAGAAUCUGGUGAAUCUGCGAAUUCUGCUGU [G25A U43A] | 0.154 |

| Variant | self-cleavage |
| --- | --- |
| GGGGGCCACAGCAGAAGCGUUCACAUCGCGGCCCCUGUCAGAGUCUGGUGAAUCUGCGAAUUCUGCUGU [G25A U43G] | 0.119 |
| GGGGGCCACAGCAGAAGCGUUCACAUCGCGGCCCCUGUCAGAUUCUGGUGAAUCUGCGAAUUCUGCUAU [G25A G68A] | 0.222 |
| GGGGGCCACAGCAGAAGCGUUCACAUCGCGGCCCCUGUCAGAUUCUGGUGAAUCUGCGAAUUCUGCUCU [G25A G68C] | 0.195 |
| GGGGGCCACAGCAGAAGCGUUCACAUCGCGGCCCCUGUCAGAUUCUGGUGAAUCUGCGAAUUCUGCUUU [G25A G68U] | 0.224 |
| GGGGGCCACAGCAGAAGCGUUCACACCGCGGCCCCUGUCAGAUUCUGGUGAAUCUGCGAAUUCUGCUGU [G25A U26C] | 0.297 |
| GGGGGCCACAGCAGAAGCGUUCACAGCGCGGCCCCUGUCAGAUUCUGGUGAAUCUGCGAAUUCUGCUGU [G25A U26G] | 0.148 |
| GGGGGCCACAGCAGAAGCGUUCACAUCGCGGCCCCUGUCAGAUUCUGGUGAAUCUGCGAACUCUGCUGU [G25A U61C] | 0.247 |
| GGGGGCCACAGCAGAAGCGUUCACAUCGCGGCCCCUGUCAGAUUCUGGUGAAUCUGCGAAGUCUGCUGU [G25A U61G] | 0.219 |
| GGGGGCCACAGCAGAAGCGUUCACAUCGCGGCCCCAGUCAGAUUCUGGUGAAUCUGCGAAUUCUGCUGU [G25A U36A] | 0.184 |
| GGGGGCCACAGCAGAAGCGUUCACAUCGCGGCCCCGGUCAGAUUCUGGUGAAUCUGCGAAUUCUGCUGU [G25A U36G] | 0.176 |
| GGGGGCCACAGCAGAAGCGUUCACAUCGCGGCCCCCGUCAGAUUCUGGUGAAUCUGCGAAUUCUGCUGU [G25A U36C] | 0.292 |
| GGGGGCCACAGCAGAAGCGUUCACAUCGCGGCCCCUGUCAGAUUCUGGUGAAUCUGCGAAUUCUACUGU [G25A G65A] | 0.189 |
| GGGGGCCACAGCAGAAGCGUUCACAUCGCGGCCCCUGUCAGAUUCUGGUGAAUCUGCGAAUUCUGCCGU [G25A U67C] | 0.133 |
| GGGGGCCACAGCAGAAGCGUUCACAUCGCGGCCCCUGUCAGAUUCUGGUGAAUCUGCGAAUUCUGCGGU [G25A U67G] | 0.266 |
| GGGGGCCACAGCAGAAGCGUUCACAUCGCGGCCCCUGUCAGAUGCUGGUGAAUCUGCGAAUUCUGCUGU [G25A U44G] | 0.11 |
| GGGGGCCACAGCAGAAGCGUUCACAUCGCGGCCCCUGUCAGAUACUGGUGAAUCUGCGAAUUCUGCUGU [G25A U44A] | 0.138 |
| GGGGGCCACAGCAGAAGCGUUCACAUCGCGGCCCCUGUCAGAUUCUGGUGAAUCUUCGAAUUCUGCUGU [G25A G56U] | 0.2 |
| GGGGGCCACAGCAGAAGCGUUCACAUCGCGGCCCCUGUCAGAUUCUGGUGAAUCGGCGAAUUCUGCUGU [G25A U55G] | 0.235 |
| GGGGGCCACAGCAGAAGCGUUCACAUCGCGGCCCCUGUCAGAUUCUGGUGAAUCCGCGAAUUCUGCUGU [G25A U55C] | 0.152 |
